Data published in patent publication US20130145485.

Experiments:
Test in all cases: cell_activity
[1] = system: ZFN 32398 (synthetic construct); details: pair 32401/32398, DLSSA reporter in Neuro2A; pVAX control 0.16
[2] = system: ZFN 9940 (synthetic construct); details: pair 12897/9940 with donor, CF iPS cells; 21 of 64 clones; scale: % puroR clones with targeted insertion
[3] = system: ZFN 32366 (synthetic construct); details: pair 32365/32366, K562 cells
[4] = system: ZFN 12897 (synthetic construct); details: pair 12897/9940 with donor, CF iPS cells; 21 of 64 clones; scale: % puroR clones with targeted insertion
[5] = system: ZFN 32365 (synthetic construct); details: pair 32365/32366, K562 cells
[6] = system: ZFN 32376 (synthetic construct); details: pair 32375/32376, K562 cells
[7] = system: ZFN 32401 (synthetic construct); details: pair 32401/32398, DLSSA reporter in Neuro2A; pVAX control 0.16
[8] = system: ZFN 32375 (synthetic construct); details: pair 32375/32376, K562 cells

Sequence “ACACCAATGATATTTTCTTTAATGGTGC (double strand) [32398 target site]” has an activity (firefly/renilla ratio) [1] of 1.45.
For “AGTGATTATGGGAGAACTGGATGTTCACAGTCAGTCCACACGTC (double strand) [9940 target site]”, the activity [2] was 33.
With “ATATAGATACAGAAGCGTCATCAAAGCA (double strand) [32366 target site]” the activity [3] was 9 % indels.
For “ATTAGAAGTGAAGTCTGGAAATAAAACC (double strand) [12897 target site]”, the activity [4] was 33.
Work on “CATCATAGGAAACACCAAAGATGATATT (double strand) [32365 target site]” yielded an activity [5] of 9 % indels.
Work on “CCAACTAGAAGAGGTAAGAAACTATGTG (double strand) [32376 target site]” yielded an activity [6] of 12 % indels.
In the case of “CCTATGATGAATATAGATACAGAAGCGT (double strand) [32401 target site]”, the activity (firefly/renilla ratio) [7] is reported as 1.45.
In the case of “GCTTTGATGACGCTTCTGTATCTATATT (double strand) [32375 target site]”, the activity [8] is reported as 12 % indels.
